Results from patent US20240043508A1 (KOOKMIN UNIVERSITY INDUSTRY ACADEMY COOPERATION FOUNDATION, published 2024).
Substitutions are numbered along the chain they refer to. Where two headings read alike, the source gives them in different places.

B1: RD3 (antibody, V domains shown)
VH: EVQLLESGGGLVQPGGSLRLSCAASGFTFSDYAMSWVRQAPGKGLEWVSWIYSGSGNKYYADSVKGRFTISRDNSKNTLYLQMNSLRAEDTAVYYCARFPIARTSNSQSSYDGMDVWGQGTLVTVSS
VL: QSVLTQPPSASGTPGQRVTISCSGSSSNIGSNAVSWYQQLPGTAPKLLIYADNKRPSGVPDRFSGSKSGTSASLAISGLRSEDEADYYCGAWDSSLNAYVFGGGTKLTVL
notes: also called K102.1
B2: RG6 (antibody, V domains shown)
VH: EVQLLESGGGLVQPGGSLRLSCAASGFTFSDYSMSWVRQAPGKGLEWVSGIYHSDGSKYYADSVKGRFTISRDNSKNTLYLQMNSLRAEDTAVYYCARFDPVFDYWGQGTLVTVSS
VL: B1 VL with S23T, S35N, N53S, K54N, S94A, N97S
B3: RB6 (antibody, V domains shown)
VH: EVQLLESGGGLVQPGGSLRLSCAASGFTFSSYDMSWVRQAPGKGLEWVSGISYSGGSTYYADSVKGRFTISRDNSKNTLYLQMNSLRAEDTAVYYCARDVNFVPLVTFDYWGQGTLVTVSS
VL: B1 VL with I20L, S23T, A33S, S35T, A51D, K54Q, A91T, S94Y, N97S
notes: also called K102.2
B4: HA-tagged K102.2 (K102.2-HA) (antibody, V domains shown)
VH: B3 VH
VL: B1 VL with I20L, S23T, A33S, S35T, A51D, K54Q, A91T, S94Y, N97S
B5: RD10 (antibody, V domains shown)
VH: B2 VH with S33A, G50A, H53P, S54G, D55G, K58T, F99N, D100L, P101F, V102G
VL: B1 VL with S23T, S35Y, A51D, N53S, K54N, A91S, S94D, N97S
B6: RB4 (antibody, V domains shown)
VH: B2 VH
VL: B1 VL with A51D, D52N, K54H, A91S, S94D

Key:
[1] = molecular target: T1, SARS-CoV-2 S protein of the wild-type, on pseudotyped lentiviral particles (SARS-CoV-2); test: cell-based or functional assay
[2] = molecular target: SARS-CoV RBD (SARS-CoV, UniProt P59594 306-527); test: ELISA, 0.1 ug antigen coated
[3] = molecular target: T1, SARS-CoV-2 S protein of the wild-type, …; test: cell-based or functional assay; remark: listed apart in the source
[4] = molecular target: SARS-CoV-2 S1 domain (SARS-CoV-2, UniProt P0DTC2 14-685); test: ELISA: IgG titrated on plate-bound S1, absorbance at 450 nm
[5] = molecular target: T2, SARS-CoV-2 RBD (wild-type) (SARS-CoV-2, UniProt P0DTC2 319-541)
[6] = molecular target: T2, SARS-CoV-2 RBD (wild-type); test: competition ELISA: RBD-His with antibody, binding to coated hACE2-Fc
[7] = molecular target: T2, SARS-CoV-2 RBD (wild-type); test: SPR (FIG. 24)
[8] = molecular target: T2, SARS-CoV-2 RBD (wild-type); test: SPR, RBD immobilised, 1:1 model
[9] = molecular target: SARS-CoV-2 RBD protein (Fc-tagged) (SARS-CoV-2, UniProt P0DTC2 319-541)
[10] = molecular target: T2, SARS-CoV-2 RBD (wild-type); test: SPR, RBD immobilised
[11] = molecular target: T2, SARS-CoV-2 RBD (wild-type); remark: listed apart in the source
[12] = molecular target: T2, SARS-CoV-2 RBD (wild-type); test: ELISA, antigen coated, antibody titrated, A450

| Binder | binding result [2] | Kd [4] [nM] | Kd [5] [nM] | IC50 [9] [nM] | other results |
| --- | --- | --- | --- | --- | --- |
| B1 | binds | – | – | – | IC50 (nM), pseudotyped virus infection [1]: 1.94 nM; IC50 (nM), pseudovirus neutralization, luciferase in 293T/hACE2 cells [3]: 1.94 nM |
| B2 | – | 0.22 | 0.481 | – | – |
| B3 | binds | 3.2 | 0.716 | 1.95 | IC50 [6]: 4.94 nM; Kd [7]: 2.46 nM; fold affinity against K102.3 [7]: ~5 fold; Kd [8]: 2.2 nM; kon [8]: 197000 M⁻¹ s⁻¹; Kd [10]: 2.2 nM; kon [10]: 197000 M⁻¹ s⁻¹ |
| B4 | – | – | – | – | EC50 (read off the curve) [11]: ~0.05 µg/mL |
| B5 | – | 0.317 | 0.55 | 1.97 | Kd [12]: ~0.1 nM |
| B6 | – | 0.169 | 0.186 | 0.841 | – |
